Reference: publication PMC5220579 (Molecular immunology, 2016)

Experiments:
[1] = target: T1, human PVR (poliovirus receptor) (human, UniProt P15151 21-343); assay: SPR
T1 sequence (looked up): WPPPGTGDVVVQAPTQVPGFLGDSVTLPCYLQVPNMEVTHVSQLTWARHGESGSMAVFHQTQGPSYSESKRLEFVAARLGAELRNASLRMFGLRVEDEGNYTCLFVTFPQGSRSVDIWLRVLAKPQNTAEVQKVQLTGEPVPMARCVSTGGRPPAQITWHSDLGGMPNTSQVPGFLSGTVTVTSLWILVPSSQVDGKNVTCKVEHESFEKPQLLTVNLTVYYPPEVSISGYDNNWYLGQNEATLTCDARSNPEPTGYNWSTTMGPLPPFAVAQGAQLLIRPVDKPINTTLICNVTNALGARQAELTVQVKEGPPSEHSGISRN

[2] = target: T2, IgV domain of human nectin-2 (human, UniProt Q92692 32-158); assay: SPR
T2 sequence: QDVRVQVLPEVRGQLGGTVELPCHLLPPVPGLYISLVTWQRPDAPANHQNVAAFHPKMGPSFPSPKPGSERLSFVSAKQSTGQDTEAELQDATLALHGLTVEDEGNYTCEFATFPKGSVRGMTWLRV

B1: IgV domain of human TIGIT (residues 22 to 137) (domain or fragment, UniProt Q495A1 22-137, looked up)
chain: MMTGTIETTGNISAEKGGSIILQCHLSSTTAQVTQVNWEQQDQLLAICNADLGWHISPSFKDRVAPGPGLGLTLQSLTVNDTGEYFCIYHTYPDGTYTGRIFLEVLESSVAEHGAR
A Kd [1] of 0.36 ± 0.025 µM and a Kd [2] of 11.5 ± 1.1 µM were found for B1 in this work.
